For the data set the following is noted: Hordeum vulgare, MES 450 mM, reversible: yes, whole UniProt chain shown; for Tm / unfolding enthalpy (calorimetric) / unfolding enthalpy (van 't Hoff): Thermal, DSC.
[1] abbreviates: pH 6.3, 25 °C, GdnHCl, Fluorescence.

B1: Subtilisin-chymotrypsin inhibitor-2A wild type, P01053 (protein)
chain: MSSVEKKPEGVNTGAGDRHNLKTEWPELVGKSVEEAKKVILQDKPEAQIIVLPVGTIVTMEYRIDRVRLFVDKLDNIAQVPRVG
One may read the Tm as the temperature at which the thermal transition is half complete. As to B1, for the setting “pH 3”, the Tm worked out at 64 °C, the “unfolding enthalpy (calorimetric)” value was 61 kcal/mol and the “unfolding enthalpy (van 't Hoff)” value stood at 61.2 kcal/mol. Further, for the setting “pH 3.5”, the Tm was 73.8 °C, the “unfolding enthalpy (calorimetric)” value was 67 kcal/mol and the “unfolding enthalpy (van 't Hoff)” value worked out at 66.9 kcal/mol. In addition, under setting [1], the denaturant m value was determined as 1.89 kcal/mol/M, the “denaturant midpoint (higher = more stable)” value was 3.99 M and the unfolding free energy amounted to 7.53 kcal/mol.

(Values after FireProtDB (doi:10.1021/bi00093a001).)
